These are literature values, as cited in article PMC2663039.

“And” between values parts separate entries of the source, which are not always exact repeats. Equal entries are not always repeated.

The term Kd denotes the concentration at which binding is half-saturated.

Series [1] concerns the target NRP1 (Homo sapiens) (UniProt O14786). Nature of the series: SPR.
The target is the same in series [2]. Nature of the series: SPR (BIAcore). In general terms: In SPR one partner is held on a chip, and binding of the other changes the refractive index at the surface.
Series [3] shares this target. Nature of the series: cell-based Scatchard.
For a further series, the target named is VEGFR1 (Homo sapiens) (UniProt P17948).
The target in series [4] is sVEGFR1 (sFlt-1, HUVEC-derived) soluble isoform (Homo sapiens) (UniProt P17948).
Series [5] deals with sFlt-1 (HUVEC-derived) soluble form (Homo sapiens) (UniProt P17948).
In series [6] the target is sVEGFR1 (sFlt-1, baculovirus-expressed) soluble isoform (Homo sapiens) (UniProt P17948).
Series [7] deals with sFlt-1 (baculovirus-expressed) soluble form (Homo sapiens) (UniProt P17948).
The next series has as its target VEGFR2 (Homo sapiens) (UniProt P35968).
UniProt P35968, sequence (P35968 20-1356): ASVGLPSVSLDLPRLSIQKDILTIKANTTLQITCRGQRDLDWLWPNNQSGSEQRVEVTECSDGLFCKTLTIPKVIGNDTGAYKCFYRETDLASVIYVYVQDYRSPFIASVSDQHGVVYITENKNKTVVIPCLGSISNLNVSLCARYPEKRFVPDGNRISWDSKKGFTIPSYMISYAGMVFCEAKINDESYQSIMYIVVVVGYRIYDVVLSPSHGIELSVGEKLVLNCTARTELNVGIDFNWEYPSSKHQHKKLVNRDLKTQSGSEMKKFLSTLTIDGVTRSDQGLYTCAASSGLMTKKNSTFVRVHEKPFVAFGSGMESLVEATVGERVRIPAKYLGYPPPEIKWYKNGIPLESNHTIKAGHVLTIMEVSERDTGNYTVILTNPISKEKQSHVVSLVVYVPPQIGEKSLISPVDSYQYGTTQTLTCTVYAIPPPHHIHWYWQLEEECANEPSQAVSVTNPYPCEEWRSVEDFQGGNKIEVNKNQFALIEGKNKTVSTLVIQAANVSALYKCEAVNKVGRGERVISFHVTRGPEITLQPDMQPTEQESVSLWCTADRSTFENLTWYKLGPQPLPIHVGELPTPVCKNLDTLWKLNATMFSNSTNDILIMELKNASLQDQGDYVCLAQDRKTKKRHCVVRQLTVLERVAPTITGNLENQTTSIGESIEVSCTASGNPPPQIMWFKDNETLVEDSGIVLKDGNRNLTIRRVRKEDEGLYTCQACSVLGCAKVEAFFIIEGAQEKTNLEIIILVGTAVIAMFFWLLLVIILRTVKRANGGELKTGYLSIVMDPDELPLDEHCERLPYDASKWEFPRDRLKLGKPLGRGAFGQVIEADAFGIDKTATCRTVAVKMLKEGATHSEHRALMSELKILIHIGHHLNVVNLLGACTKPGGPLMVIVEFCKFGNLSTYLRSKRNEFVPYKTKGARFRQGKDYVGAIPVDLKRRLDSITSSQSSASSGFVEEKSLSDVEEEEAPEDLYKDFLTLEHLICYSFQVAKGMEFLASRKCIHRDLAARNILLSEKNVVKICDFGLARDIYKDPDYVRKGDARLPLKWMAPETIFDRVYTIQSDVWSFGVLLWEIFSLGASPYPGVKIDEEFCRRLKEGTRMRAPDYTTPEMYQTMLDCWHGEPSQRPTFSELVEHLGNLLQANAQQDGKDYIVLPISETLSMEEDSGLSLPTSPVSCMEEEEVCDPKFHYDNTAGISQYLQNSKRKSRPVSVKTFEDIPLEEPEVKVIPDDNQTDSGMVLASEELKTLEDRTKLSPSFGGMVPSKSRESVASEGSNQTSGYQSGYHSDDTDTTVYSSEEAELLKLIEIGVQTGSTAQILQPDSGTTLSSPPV

As for Flt-1 ECD (from UniProt P17948), the Kd with NRP1 (Homo sapiens) [1] was 1800 pM.

On to VEGF121 VEGF121 (from UniProt P15692), for which the dissociation constant (Kd) with NRP1 (Homo sapiens) [1] was 220000 pM.

As for VEGF165 VEGF165 (from UniProt P15692), the Kd in the series with NRP1 (Homo sapiens) [1] is 120000 pM.

With “VEGF165 VEGF165 isoform (from UniProt P15692)”, the dissociation constant (Kd) with NRP1 (Homo sapiens) [2] is 25000 pM; in the series with NRP1 (Homo sapiens) [3], 200 pM and 320 pM.

For the substance VEGF (from UniProt P15692), the Kd with VEGFR1 (Homo sapiens) is 33.3 pM; in [4] it was 10 pM; in series [5], 10 pM; in [6] it was 20 pM; in series [7], 20 pM; with VEGFR2 (Homo sapiens), 100 pM.
